Earlier results, collected in paper PMC8557391.

Target: Keap1 (Homo sapiens) (UniProt Q14145)
Assay: FP

Sequence of UniProt Q14145 (Q14145 whole entry): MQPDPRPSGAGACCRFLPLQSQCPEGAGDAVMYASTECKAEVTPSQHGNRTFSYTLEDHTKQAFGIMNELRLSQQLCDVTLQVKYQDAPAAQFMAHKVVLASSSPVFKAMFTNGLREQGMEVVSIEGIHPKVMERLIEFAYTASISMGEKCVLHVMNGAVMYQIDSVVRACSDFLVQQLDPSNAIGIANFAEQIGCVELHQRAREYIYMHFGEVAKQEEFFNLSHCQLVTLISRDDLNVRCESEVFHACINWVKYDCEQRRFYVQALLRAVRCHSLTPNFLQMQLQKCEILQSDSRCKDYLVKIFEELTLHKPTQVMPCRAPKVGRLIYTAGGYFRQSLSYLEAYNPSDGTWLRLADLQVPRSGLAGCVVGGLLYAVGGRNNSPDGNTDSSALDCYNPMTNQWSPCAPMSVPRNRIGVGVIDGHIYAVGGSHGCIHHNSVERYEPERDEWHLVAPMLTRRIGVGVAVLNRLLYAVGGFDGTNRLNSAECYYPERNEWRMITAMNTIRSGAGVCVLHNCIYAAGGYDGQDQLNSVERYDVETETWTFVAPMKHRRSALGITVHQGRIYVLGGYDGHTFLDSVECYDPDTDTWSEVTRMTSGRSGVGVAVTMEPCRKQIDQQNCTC

| Kd [nM] | Substance |
| --- | --- |
| 54 | Nrf2 9mer peptide (from UniProt Q16236) |
| 51 | Nrf2 10mer peptide (from UniProt Q16236) |
